Laboratory results taken from patent US20220175895A1 (ACADEMIA SINICA, published 2022).

How the values were obtained:
[1] = target: Flag-VPS34 previously ubiquitinated in vitro by UBE3C, Q8NEB9
Rubicon = target: T1, Rubicon (UniProt Q92622 1-972, limits assumed); experiment: immunoprecipitation in 293T cells transfected with Flag-TRABID, fed or starved 2 h (FIG. 2R)
T1 sequence (looked up): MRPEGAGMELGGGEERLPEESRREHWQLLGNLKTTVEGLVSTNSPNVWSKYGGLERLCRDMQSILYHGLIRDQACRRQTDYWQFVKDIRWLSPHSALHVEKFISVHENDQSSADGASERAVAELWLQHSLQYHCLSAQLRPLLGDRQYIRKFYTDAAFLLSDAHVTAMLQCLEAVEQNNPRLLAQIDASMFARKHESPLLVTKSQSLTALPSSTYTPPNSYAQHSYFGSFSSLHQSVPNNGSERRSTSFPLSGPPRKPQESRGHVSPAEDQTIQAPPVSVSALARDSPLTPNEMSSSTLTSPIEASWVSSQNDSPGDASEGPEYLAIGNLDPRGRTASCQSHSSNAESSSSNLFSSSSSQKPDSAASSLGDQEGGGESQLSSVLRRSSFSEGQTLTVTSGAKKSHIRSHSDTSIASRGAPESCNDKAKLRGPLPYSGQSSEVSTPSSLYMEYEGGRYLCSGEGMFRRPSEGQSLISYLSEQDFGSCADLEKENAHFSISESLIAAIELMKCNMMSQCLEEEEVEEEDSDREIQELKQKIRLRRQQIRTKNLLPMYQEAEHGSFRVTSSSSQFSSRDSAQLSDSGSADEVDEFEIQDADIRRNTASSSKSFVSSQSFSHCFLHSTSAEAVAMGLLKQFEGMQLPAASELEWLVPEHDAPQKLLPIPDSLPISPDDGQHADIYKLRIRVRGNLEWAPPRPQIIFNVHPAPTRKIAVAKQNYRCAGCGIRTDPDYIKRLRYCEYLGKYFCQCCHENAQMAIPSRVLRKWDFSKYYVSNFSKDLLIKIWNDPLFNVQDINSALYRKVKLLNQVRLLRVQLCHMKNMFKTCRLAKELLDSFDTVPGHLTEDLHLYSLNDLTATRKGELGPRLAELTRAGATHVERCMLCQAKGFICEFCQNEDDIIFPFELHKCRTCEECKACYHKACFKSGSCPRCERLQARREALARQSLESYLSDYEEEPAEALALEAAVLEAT

endogenous VPS34 = target: T2, endogenous VPS34 (UniProt Q8NEB9 1-887); experiment: co-immunoprecipitation from 293T cells (FIG. 2I)
T2 construct: also called vacuolar protein sorting 34; PI3 Kinase Class III
T2 sequence (Q8NEB9 whole entry): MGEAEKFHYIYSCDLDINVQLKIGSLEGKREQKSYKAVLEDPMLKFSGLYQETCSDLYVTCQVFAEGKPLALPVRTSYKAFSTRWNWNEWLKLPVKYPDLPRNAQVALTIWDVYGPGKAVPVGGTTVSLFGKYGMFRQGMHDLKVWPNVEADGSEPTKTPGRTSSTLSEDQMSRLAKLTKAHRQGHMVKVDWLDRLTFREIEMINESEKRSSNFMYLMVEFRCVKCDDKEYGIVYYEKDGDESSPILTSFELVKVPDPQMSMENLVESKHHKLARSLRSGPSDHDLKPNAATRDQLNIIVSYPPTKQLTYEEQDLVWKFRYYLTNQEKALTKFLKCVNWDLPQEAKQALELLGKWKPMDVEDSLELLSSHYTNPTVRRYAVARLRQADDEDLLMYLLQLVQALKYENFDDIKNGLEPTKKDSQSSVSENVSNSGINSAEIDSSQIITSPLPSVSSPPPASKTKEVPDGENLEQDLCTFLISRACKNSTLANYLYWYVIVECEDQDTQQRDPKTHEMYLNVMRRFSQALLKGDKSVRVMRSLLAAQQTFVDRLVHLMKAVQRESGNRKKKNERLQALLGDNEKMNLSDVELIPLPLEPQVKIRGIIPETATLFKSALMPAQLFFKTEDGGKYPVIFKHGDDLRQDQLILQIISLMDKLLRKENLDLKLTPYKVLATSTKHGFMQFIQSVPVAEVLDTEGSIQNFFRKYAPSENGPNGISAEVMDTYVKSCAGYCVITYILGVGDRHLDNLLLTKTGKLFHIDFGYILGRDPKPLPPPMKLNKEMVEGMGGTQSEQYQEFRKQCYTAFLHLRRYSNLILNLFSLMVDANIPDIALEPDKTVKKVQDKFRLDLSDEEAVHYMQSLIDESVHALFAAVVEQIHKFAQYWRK

Sequence of Flag-VPS34 previously ubiquitinated in vitro by UBE3C, Q8NEB9 (Q8NEB9 whole entry, looked up): as the sequence (Q8NEB9 whole entry) above
Sequence of Flag-VPS34, Q8NEB9 (Q8NEB9 whole entry, looked up): as the sequence (Q8NEB9 whole entry) above

B1: purified TRABID (Boston Biochem; E-560) (protein)
chain: MSERGIKWACEYCTYENWPSAIKCTMCRAQRPSGTIITEDPFKSGSSDVGRDWDPSSTEGGSSPLICPDSSARPRVKSSYSMENANKWSCHMCTYLNWPRAIRCTQCLSQRRTRSPTESPQSSGSGSRPVAFSVDPCEEYNDRNKLNTRTQHWTCSVCTYENWAKAKRCVVCDHPRPNNIEAIELAETEEASSIINEQDRARWRGSCSSGNSQRRSPPATKRDSEVKMDFQRIELAGAVGSKEELEVDFKKLKQIKNRMKKTDWLFLNACVGVVEGDLAAIEAYKSSGGDIARQLTADEVRLLNRPSAFDVGYTLVHLAIRFQRQDMLAILLTEVSQQAAKCIPAMVCPELTEQIRREIAASLHQRKGDFACYFLTDLVTFTLPADIEDLPPTVQEKLFDEVLDRDVQKELEEESPIINWSLELATRLDSRLYALWNRTAGDCLLDSVLQATWGIYDKDSVLRKALHDSLHDCSHWFYTRWKDWESWYSQSFGLHFSLREEQWQEDWAFILSLASQPGASLEQTHIFVLAHILRRPIIVYGVKYYKSFRGETLGYTRFQGVYLPLLWEQSFCWKSPIALGYTRGHFSALVAMENDGYGNRGAGANLNTDDDVTITFLPLVDSERKLLHVHFLSAQELGNEEQQEKLLREWLDCCVTEGGVLVAMQKSSRRRNHPLVTQMVEKWLDRYRQIRPCTSLSDGEEDEDDEDE
In the case of B1, the “in vitro deubiquitination assay, Western blot of total and K48 ubiquitin linkages on VPS34 (FIG. 2K)” value [1] is reported as “purified TRABID was capable of reducing the total and K48 ubiquitin linkages from this VPS34 in vitro”.

B2: Flag-TRABID (enzyme)
chain: B1 chain
notes: not shown: Flag tag
B2: no binding (Rubicon).

B3: endogenous TRABID (enzyme)
chain: B1 chain
B3: binds (endogenous VPS34).

B4: HA-UBE3C (protein)
chain: MFSFEGDFKTRPKVSLGGASRKEEKASLLHRTQEERRKREEERRRLKNAIIIQSFIRGYRDRKQQYSIQRSAFDRCATLSQSGGAFPIANGPNLTLLVRQLLFFYKQNEDSKRLIWLYQNLIKHSSLFVKQLDGSERLTCLFQIKRLMSLCCRLLQNCNDDSLNVALPMRMLEVFSSENTYLPVLQDASYVVSVIEQILHYMIHNGYYRSLYLLINSKLPSSIEYSDLSRVPIAKILLENVLKPLHFTYNSCPEGARQQVFTAFTEEFLAAPFTDQIFHFIIPALADAQTVFPYEPFLNALLLIESRCSRKSGGAPWLFYFVLTVGENYLGALSEEGLLVYLRVLQTFLSQLPVSPASASCHDSASDSEEESEEADKPSSPEDGRLSVSYITEECLKKLDTKQQTNTLLNLVWRDSASEEVFTTMASVCHTLMVQHRMMVPKVRLLYSLAFNARFLRHLWFLISSMSTRMITGSMVPLLQVISRGSPMSFEDSSRIIPLFYLFSSLFSHSLISIHDNEFFGDPIEVVGQRQSSMMPFTLEELIMLSRCLRDACLGIIKLAYPETKPEVREEYITAFQSIGVTTSSEMQQCIQMEQKRWIQLFKVITNLVKMLKSRDTRRNFCPPNHWLSEQEDIKADKVTQLYVPASRHVWRFRRMGRIGPLQSTLDVGLESPPLSVSEERQLAVLTELPFVVPFEERVKIFQRLIYADKQEVQGDGPFLDGINVTIRRNYIYEDAYDKLSPENEPDLKKRIRVHLLNAHGLDEAGIDGGGIFREFLNELLKSGFNPNQGFFKTTNEGLLYPNPAAQMLVGDSFARHYYFLGRMLGKALYENMLVELPFAGFFLSKLLGTSADVDIHHLASLDPEVYKNLLFLKSYEDDVEELGLNFTVVNNDLGEAQVVELKFGGKDIPVTSANRIAYIHLVADYRLNRQIRQHCLAFRQGLANVVSLEWLRMFDQQEIQVLISGAQVPISLEDLKSFTNYSGGYSADHPVIKVFWRVVEGFTDEEKRKLLKFVTSCSRPPLLGFKELYPAFCIHNGGSDLERLPTASTCMNLLKLPEFYDETLLRSKLLYAIECAAGFELS
With B4 the “in vitro ubiquitination assay, Western blot of polyubiquitin chain on VPS34 (FIG. 3I)” value (Flag-VPS34, Q8NEB9) was “baculovirally purified UBE3C could assemble polyubiquitin chain on VPS34 purified from 293T cells”.
